Measured values: patent US7871610B2, “Antibodies to Tie1 ectodomain” (Dyax Corp., priority 2003, dated 2011)

How the values were obtained:
[1] = biological target: T1, recombinant human Tie1-Fc (Homo sapiens, UniProt P35590); assay: BIAcore, E3 Fabs on recombinant human Tie1-Fc; assay type: binding; details: Fab
T1 construct: selected against the Tie1 extracellular domain fused to human Fc or to a histidine purification tag
T1 sequence (P35590 22-759 limits assumed): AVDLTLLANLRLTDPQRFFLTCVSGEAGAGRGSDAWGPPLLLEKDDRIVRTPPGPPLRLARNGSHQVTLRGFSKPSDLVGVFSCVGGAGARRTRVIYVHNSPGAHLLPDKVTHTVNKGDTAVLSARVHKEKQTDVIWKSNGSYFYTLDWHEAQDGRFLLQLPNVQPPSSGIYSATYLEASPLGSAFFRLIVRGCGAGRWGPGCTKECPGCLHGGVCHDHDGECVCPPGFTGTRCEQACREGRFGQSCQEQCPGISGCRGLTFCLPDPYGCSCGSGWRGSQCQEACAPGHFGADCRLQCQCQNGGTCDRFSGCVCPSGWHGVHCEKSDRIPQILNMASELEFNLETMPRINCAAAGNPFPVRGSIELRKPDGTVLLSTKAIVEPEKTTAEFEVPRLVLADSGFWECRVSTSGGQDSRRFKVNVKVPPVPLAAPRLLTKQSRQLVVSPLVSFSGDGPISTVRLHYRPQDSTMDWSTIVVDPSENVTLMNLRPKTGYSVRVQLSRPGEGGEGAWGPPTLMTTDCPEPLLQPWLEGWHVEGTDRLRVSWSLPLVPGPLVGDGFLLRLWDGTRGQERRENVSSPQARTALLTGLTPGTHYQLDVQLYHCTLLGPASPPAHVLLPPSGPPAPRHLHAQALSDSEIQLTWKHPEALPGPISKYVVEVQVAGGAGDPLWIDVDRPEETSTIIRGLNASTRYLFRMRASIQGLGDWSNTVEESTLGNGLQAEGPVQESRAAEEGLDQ
Experimental: Recombinant purified human Tie1-Fc antigen (Stock 2.45 mg/ml) was biotinylated using the EZ-link Sulfo-NHS-SS-Biotin (Pierce, Cat. 21331). The reaction was performed for 2 hours on ice in 50 mM sodium carbonate buffer, pH 9.6, in the presence of a 5-fold molar excess of biotinylating agent and was stopped by the addition of Tris-HCl, pH 7.5 (50 mM final concentration) followed by a 1-hour incubation on ice. Samples were then dialyzed against PBS. The antigen was then diluted 1/100 fold in HBS and was then captured onto a streptavidin chip. This was coated to a density of 830RU (resonance units). All analysis was performed in HBS buffer. The parental Fab E3 and germlined E3 Fab were prepared as described above. A stock solution of 0.587 mg/ml (11740 nM) was diluted 1/587 in HBS+BSA to obtain a stock of 20 nM and the germlined Fab E3 0.025 mg/ml (500 nM) was diluted 1/25 in HBS+BSA to obtain a stock of 20 nM. Serial dilutions were made of each Fab preparation to obtain 10 nM, 5 nM, 2.5 nM, and 1.25 nM solutions. For the association phase samples were injected at 30 μl/min for 4 minutes using kinject program. […] All samples were run and analyzed in duplicate.
Sensorgrams were analyzed using the simultaneous ka/kd fitting program with 1:1 model in the BIAEVALUATION™ software 3.1.

Tie1 = Tie1 (Homo sapiens, UniProt P35590); assay: Immunohistochemistry of matched human tumor and normal tissue sections; set-up: from tissue; host or cells: fresh frozen normal and tumor tissue (e.g. lung, kidney, skin, breast); details: fresh frozen tissue
Sequence of Tie1 (P35590 22-1138): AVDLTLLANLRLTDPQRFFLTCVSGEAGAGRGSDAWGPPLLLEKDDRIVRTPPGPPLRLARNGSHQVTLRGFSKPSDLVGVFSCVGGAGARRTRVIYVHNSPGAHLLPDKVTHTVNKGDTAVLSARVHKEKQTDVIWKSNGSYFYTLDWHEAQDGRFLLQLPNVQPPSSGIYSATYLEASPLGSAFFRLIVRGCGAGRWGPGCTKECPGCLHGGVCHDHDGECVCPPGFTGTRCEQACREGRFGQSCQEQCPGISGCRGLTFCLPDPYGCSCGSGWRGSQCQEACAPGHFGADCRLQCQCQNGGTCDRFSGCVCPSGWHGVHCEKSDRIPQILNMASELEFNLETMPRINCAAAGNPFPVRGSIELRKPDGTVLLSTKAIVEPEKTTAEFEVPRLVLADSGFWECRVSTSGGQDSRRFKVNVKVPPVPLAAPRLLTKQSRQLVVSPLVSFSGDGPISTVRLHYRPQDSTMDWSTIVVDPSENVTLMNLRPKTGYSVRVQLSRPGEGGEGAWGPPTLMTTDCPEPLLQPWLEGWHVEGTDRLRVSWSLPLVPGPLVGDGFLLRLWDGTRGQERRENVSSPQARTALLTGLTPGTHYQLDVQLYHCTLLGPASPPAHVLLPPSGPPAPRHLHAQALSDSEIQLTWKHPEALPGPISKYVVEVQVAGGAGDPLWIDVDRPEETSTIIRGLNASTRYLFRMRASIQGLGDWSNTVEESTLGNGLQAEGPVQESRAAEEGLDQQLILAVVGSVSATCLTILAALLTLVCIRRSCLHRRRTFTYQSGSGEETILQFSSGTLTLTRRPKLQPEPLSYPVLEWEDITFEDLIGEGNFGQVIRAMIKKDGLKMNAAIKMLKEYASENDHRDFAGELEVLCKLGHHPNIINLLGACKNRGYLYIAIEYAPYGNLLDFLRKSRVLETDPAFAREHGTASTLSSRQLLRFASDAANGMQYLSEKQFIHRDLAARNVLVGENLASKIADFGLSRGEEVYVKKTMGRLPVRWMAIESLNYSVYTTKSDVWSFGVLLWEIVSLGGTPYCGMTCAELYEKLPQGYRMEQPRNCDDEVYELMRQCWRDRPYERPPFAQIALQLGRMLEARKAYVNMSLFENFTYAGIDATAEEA
Experimental: The Tie-1 antibodies were biotinylated using the EZ-link Sulfo-NHS-SS-Biotin (Pierce, Cat. 21331). For Tie-1/Fc and Tie-1-His, the reaction was performed for 2 hours on ice in 50 mM sodium carbonate buffer, pH 9.6, in the presence of a 5-fold molar excess of biotinylating agent. For the antibodies, the reaction was performed for 2 hours on ice in PBS, in the presence of a 15-fold molar excess of EZ-link Sulfo-NHS-SS-Biotin. The reaction was stopped by the addition of Tris-HCl, pH 7.5 (50 mM final concentration) followed by a 1-hour incubation on ice. Samples were then dialyzed against PBS.
Various normal and tumor tissue sections were stained with biotinylated antibodies. A mouse monoclonal anti-Tie1 antibody (7e8) (Alitalo laboratory, University of Helsinki) was used as a positive control. Sections without primary antibody served as negative control. All samples were fresh frozen tissues and staining was performed with the TSA-kit (Perkin-Elmer Life Sciences). After acetone fixation (10-20 min, −20° C.) the slides were treated with 0.73% H2O2 for 10 min to reduce endogenous peroxidase activity followed by blocking for 30 min with TNB buffer. Sections ([…] thick) were incubated with primary antibodies (10 μg/ml) overnight at 4° C. Sections with the mouse monoclonal anti-tie1 antibody (7e8) were treated with biotinylated anti-mouse antibodies (VectaStain) before the addition of streptavidin-HRP. Signal was amplified by using a TSA kit and the visualized by AEC (235 ml NaAc, 15 ml AEC (stock solution: 1600 mg 3-amino-9-ethyl-carbazole and 480 ml N-dimethylformamide), 250 μl H2O2).

B1: E3: human anti-Tie1 antibody from Fab phage library; HC SEQ ID NO:114, LC SEQ ID NO:116 (antibody, V domains shown)
VH: EVQLLESGGGLVQPGGSLRLSCAASGFTFSMYGMVWVRQAPGKGLEWVSVISPSGGNTGYADSVKGRFTISRDNSKNTLYLQVNSLRAEDTAVYYCARAPRGYSYGYYYWGQGTLVTVSSASTKGPSVFPLAPSSKSTSGG
VL: DIQMTQSPLSLSASVGDRVTITCRASQGIGHYLAWYQQKPGKVPKLLIYTASTLQSGVPSRFSGSGSGTDFTLTINSLQPEDVATYYCQQFNSYPHTFGQGTRLDIK
modifications: Synthetically generated peptide
B1 was tested, and the “effect of germlining on binding activity” value [1] was “minimal effect on the binding activity”, the “staining of breast carcinoma” value (Tie1; 10 μg/ml) was “stained also other structures in addition to vessels” and the “staining of hypernephroma tissue” value (Tie1; 10 μg/ml) was “clear staining”. For the same molecule, the staining of kidney (Tie1; 10 μg/ml) was “stained kidney tubules in addition to the vessels”, the “staining of lung carcinoma” value (Tie1; 10 μg/ml) was “stained structures other than vessels” and the “staining of melanoma tissue” value (Tie1; 10 μg/ml) was “also stained other surrounding structures”. The “staining of normal lung (large veins)” value (Tie1; 10 μg/ml) was “stained especially clearly the large veins”, the “staining of normal skin” value (Tie1; 10 μg/ml) was “stained blood vessels very faintly” and the “staining of veins and capillaries of mammary tissue (breast)” value (Tie1; 10 μg/ml) was “brightest staining”. For the same molecule, the “staining of vessels in normal tissues (tissue specificity)” value (Tie1; biotinylated IgG 10 μg/ml) was “stained vessels in the lung and kidney but not in the skin”.
